Tested on: MS2 coat protein
Test: apparent KD of MS2 coat protein; designed switch direction (-1 OFF switch, 1 ON switch): -1; higher = weaker reporter binding
Method in brief: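 The reported apparent KD is a per-design median over clusters, from curve fits of normalised cluster fluorescence. Protein titrations used SNAP-549-labelled MS2 coat protein, doubled from 0.7 or 1.5 nM to 3 µM, in Tris-HCl pH 7.5 buffer with KCl, MgCl2, BSA, DTT, tRNA and Tween-20, with no input, 200 uM small-molecule ligand, or an oligonucleotide input. The RNA switches were transcribed on Illumina chips by stalled E. coli RNA polymerase.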

[1] = input ligand: microRNA oligo, concentration not stated
[2] = Eterna round: R95, input ligand: FMN 200 uM
[3] = Eterna round: R95, input ligand: microRNA oligo, concentration not stated
[4] = Eterna round: R95, input ligand: none

Sequence	apparent KD of MS2 coat protein (input ligand: FMN 200 uM)	apparent KD of MS2 coat protein [1]	apparent KD of MS2 coat protein (input ligand: none)	apparent KD of MS2 coat protein [2]	apparent KD of MS2 coat protein [3]	apparent KD of MS2 coat protein [4]
GUCAGCUCGUGAGGAUAUGAACAUGAGGAUCACCCAUGUAAGAUCAAGCUGCUUCGGCAGCAAGUUCAGAAGGUACGAGCUGAC [ENG2/10-C1] (Eterna round: R96, puzzle: Exclusion NG 2)	150 nM	77.5 nM	130 nM			
GGAUCUACUGAGGAUAUUACAUCACCCGAUUGAUAAGAAGGCAGAACAUGAGGAUCACCCAUGUGGGUAGCCAA [Polaris] (Eterna round: R97, puzzle: Exclusion 6)	36.9 nM		21 nM			
AGACUCAUUGUGAGGAUAUCGGGUCAACGAGACUACGAGAAGGCACAUGAGGAUCACCCAUGUAGCCACGGCUA [Eternabot (L2) Solution 95] (Eterna round: R97, puzzle: Brourd's mod of Exclusion 4)	94.8 nM		240 nM			
GGACAGGGAGGAUAUACUUGAGGAUCACCCAAGUCGUAUAAUCGAUGAACACGCCGAAGUAGAAGGCCCAAAAG [Esorgebi] (Eterna round: R97, puzzle: Exclusion 3)	403 nM		131 nM			
GGAAACCUACCGCGACAUGAGGAUCACCCAUGUGAUUGGUUUUAGGAUAUCUGGAGAAUCCAGACAGAGAAGGAGGGCCGUCGC [Eternabot solution 38] (Eterna round: R96, puzzle: Exclusion NG 3)	77.5 nM	28.5 nM	45.1 nM			
UUUAAUUUUUUUUUUUUACAAGCUUUUUGCUCGUCUUAUACAUGAGGAUCACCCAUGUGAGUGGGAGAUAAAUUAUC [JMF 22] (puzzle: Sensor v3, turn-off variant 2)				98.2 nM	213 nM	170 nM
UUCACAUGGACAUGAGAUCACAUGAGGAUCACCCAUGUGAAUAACAAGCUUUUUGUUCGUCUUAUGUCCAAUAAUAG [Stov1/14-D3] (Eterna round: R97, puzzle: Sensor, turn-off variant 1)	14 nM		14.1 nM			
CUUCGACAUGAGGAUCACCCAUGUCAGGAUAUUGUUUAUCUGGUUUUUUACAGAUAUACAAGAAGGGAUGUGUU [LRO-Excl1-02] (puzzle: Exclusion 1)					25.9 nM	
AUCGUGAAGAAGGAUAUGGGCCCGGUAAUACGACUAGAAGGUCUGACAUGAGGAUCACCCAUGUGAUACCAAAA [Arorquis] (puzzle: Exclusion 6)				32.2 nM	33.3 nM	32.5 nM
AGCUGUGGCCGAGGAUAUCUGUCUCAUAAAACCGAAAUAUAAUCGGACAUGAGGAUCACCCAUGUAGAGAAGGCGGUCUCAGCA [Eli eng2 - 096] (Eterna round: R96, puzzle: Exclusion NG 2)		15.8 nM				
CCCGUGUGAGGAUAUCCCUCCACAGUACGAAUCGACCCGUGGGAGAAGGCACAUGAGGAUCACCCAUGUGAACG [Eternabot (Original) Solution 30] (Eterna round: R97, puzzle: Exclusion 4)	42.5 nM		32.8 nM			
AGGUGCUUCUGGAAACAUGAGGAUCACCCAUGUUGAGUUAGCGAGGAUAUCGGUAACCAUUGUUAUGAGAAGGCGCAAACCAGA [Ex NG3 #37] (Eterna round: R96, puzzle: Exclusion NG 3)	19.9 nM	11.4 nM	20.2 nM			
AACCUGAGGCAAAGCUUUAGGCUUACAUGAGGAUCACCCAUGUAGGAUAUGGUAGGCAAAGCUUACCAGAAGGACAUGGAAAUU [Mat - Exclusion NG 3 - Mod of JL - D24] (Eterna round: R96, puzzle: Exclusion NG 3)	611 nM	127 nM	130 nM			
AAUAACAGAGGAUAUACUAUUUUAUGUGUUUGUUGUUUUGAACAUGAGGAUCACCCAUGUAGAAGGCUGAUUGA [JMF 80] (puzzle: Exclusion 2)					39.6 nM	
UGAUUGUUUACCAGAUUAUACAUGAGGAUCACCCAUGUAGAUCCUACGUGCACGUUAUGCAGCUCGUCUUAUUCCCA [Sensor-V1 #73] (Eterna round: R97, puzzle: Sensor, turn-off variant 1)	40.3 nM		44.1 nM			
GAUGUCCAGCGAGGAUAUCUGGUAAAUAAAAUGAGAGAAGGCGCGAAGACAUGAGGAUCACCCAUGUUGUCGCAUGGGAGCCUG [Enqurete] (Eterna round: R96, puzzle: Exclusion NG 1)	116 nM	22.9 nM	29.1 nM			
CAGAAACAUGAGGAUCACCCAUGUGAGGAUAUGAAAAAGAAAAGAAAAGAAAGAAGAAUCAGAAGGCACAAAGA [salish99-ex1_r3_085] (puzzle: Exclusion 1)				31.3 nM	23.9 nM	31.8 nM
GGGUCACAUGAGGAUCACCCAUGUGAGGAUAUGAUACUAUGUACUUCGGUACAUAGUAUCAGAAGGCACAUCCC [Ex1-3: 17] (puzzle: Exclusion 1)					18.6 nM	

Sequence	apparent KD of MS2 coat protein (input ligand: FMN 200 uM)	apparent KD of MS2 coat protein [1]	apparent KD of MS2 coat protein (input ligand: none)	apparent KD of MS2 coat protein [2]	apparent KD of MS2 coat protein [3]	apparent KD of MS2 coat protein [4]
AGUACUACCACGAAAGUGUUAGUACAAUAAGCUUGUGAAACAUGAGGAUCACCCAUGUCCUCAUAAGCUCGUCUUAU [salish99_TOv2_r3_021] (puzzle: Sensor v3, turn-off variant 2)				16.7 nM	524 nM	16.5 nM
CUGCUCCGUGUAGGAUAUGCGCGCACCACCCGCGCAGAAGGACAUGAGGAUCACCCAUGUAUGUUAUUAUCACGUGAGGCGCGC [Design 37] (Eterna round: R96, puzzle: Exclusion NG 1)	16.8 nM	10.9 nM	18 nM			
ACUGGUCGAGGAUAUACAUGACGUGCUUCGGCACGAGAUCUACAUGAGGAUCACCCAUGUAGAAGGCGACCAGU [E2/11-A2] (Eterna round: R97, puzzle: Exclusion 2)	735 nM		65 nM			
CGCUGGACAGGAUAUGUUCUUGGGCACUUGAGGAUCACCCAAGUCAUCGGGACAUCAGGCACAGAAGGGUUUAUGG [salish99_ex5_r4_026] (Eterna round: R97, puzzle: Exclusion 5)	19.1 nM		21.1 nM			
UUUGAAUAAGUGAGGAUAUACUGUUAGUAAUGAUUGUAGAAGGUACAUGAGGAUCACCCAUGUUUAUUAUUUAU [JR_BME4_Sub039] (puzzle: Brourd's mod of Exclusion 4)					20.7 nM	
GGGUGACAUGAGGAUCACCCAUGUGAGGAUAUCUGGAUACUCUUUAUUUUAGAUAUCCAGAGAAGGCACACCCU [Ex1-3: 6Z] (puzzle: Exclusion 1)					356 nM	
CUUGUUUAUGUAGGAUAUGCCUGGCGUGCCUUUGCAGAAGGACAUGAGGAUCACCCAUGUAACAUGAGGCUCACCCAUGUCGCA [salish99_ExNG1_r04_104] (Eterna round: R96, puzzle: Exclusion NG 1)	376 nM	256 nM	353 nM			
CAGUACUGAGGAUAUACAUGAGGAUCACCCAUGUUCCAAGGCUAGGAAACUAGCAAAAGUAGAAGGCAGUACUG [828 mod 2 m3] (Eterna round: R97, puzzle: Exclusion 3)	472 nM		24.5 nM			
GACUAGGCAGGAUAUACAUGAGGAUCACCCAUGUGUCUGCGUUAAGCACGUGAAGACGGUAGAAGGGCCUACAC [ChP 13.04.2015 #18] (puzzle: Exclusion 3)					13 nM	
GGUUGGCGAGGAUAUACAUGAGGAUCACCCAUGUGAGAGACAAAAGUGAGGAAGAAAAGUAGAAGGCGCUGACG [salish99_ex3_r3_022] (puzzle: Exclusion 3)				2000 nM	84.5 nM	232 nM
CUGGUCCGAGGAUAUAUUAAGUGAUACAUGAGGAUCACCCAUGUUAUUUAAUGGAUGUUAAUAGAAGGCGGACUAG [JL-ex5-3.19] (puzzle: Exclusion 5)				33.9 nM	43.9 nM	34.8 nM
AGGGAUAAAGGAUAUACAUGAGGAUCACCCAUGUUGAGGAAGGUUAGAUGAGGAGUAAGUAGAAGGUUAGACGA [JR_Exclu3_Sub088] (puzzle: Exclusion 3)				45.7 nM	40.7 nM	61.3 nM
AAACCUAGUCUAGGAUAUGGUGAGAGUUUGUCGGUGAGUACAUGAGGAUCACCCAUGUACGCUUGCUAGAAGGAGACAGGCUCG [Eternabot solution 37] (Eterna round: R96, puzzle: Exclusion NG 2)	13.7 nM	11.5 nM	14.6 nM			
AGCGAGGCAGGAUAUACAUGAGGAUCACCCAUGUACUUGUAUGGCGUGGAACAUCGUGGUAGAAGGGCCGUGCU [EX3 #81] (Eterna round: R97, puzzle: Exclusion 3)	101 nM		355 nM			
CCUCUGUUAGGAUAUGGCAAAGAUGAGACACACCGACAUUGUUAGAAGGGACAUGAGGAUCACCCAUGUCAGCG [Eternabot (L1) Solution 57] (Eterna round: R97, puzzle: Exclusion 4)	22.8 nM		21.4 nM			
GUCUACCAGCUAGGAUAUGCAGUACAUUAAAAUGUAGAAGGAGCACGAUCCAGACAUGAGGAUCACCCAUGUGGGCGGUAGGCA [Aques] (Eterna round: R96, puzzle: Exclusion NG 1)		15.6 nM				
GGGCCCGGAGGAUAUACAUGAGGAUCACCCAUGUAGGGCUCGGGUAUUCUCGGGCUCUGUAGAAGGCCGGGCCC [-39.6, -36.7 kcal, A 19%, 5,0] (Eterna round: R97, puzzle: Exclusion 3)	17.5 nM		18.6 nM			
